Source: article PMC9741607, “Cryo-electron tomography reveals structural insights into the membrane remodeling mode of dynamin-like EHD filaments” (Nature Communications, 2022)

Target: the molecule itself
Assay: cryo-EM structure; cryo-electron tomography and subtomogram averaging of EHD4^ΔN filaments on membrane tubes (liposomes of 50% Folch extract, 40% phosphatidylethanolamine, 10% cholesterol) with AMPPNP; pseudo-atomic model by rigid-body and flexible fitting

B1: mouse EHD4 (residues 22-541, EHD4^ΔN) (domain or fragment, UniProt Q9EQP2 22-541, looked up)
chain: QTVTGGLRSLYQRKVLPLEEAYRFHEFHSPALEDADFENKPMILLVGQYSTGKTTFIRYLLEQDFPGMRIGPEPTTDSFIAVMYGETEGSTPGNALVVDPKKPFRKLSRFGNAFLNRFMCSQLPNQVLKSISIIDSPGILSGEKQRISRGYDFCQVLQWFAERVDRIILLFDAHKLDISDEFSEAIKAFRGQDDKIRVVLNKADQVDTQQLMRVYGALMWSLGKVINTPEVLRVYIGSFWAQPLQNTDNRRLFEAEAQDLFRDIQSLPQKAAVRKLNDLIKRARLAKVHAYIISYLKKEMPNMFGKENKKRELIYRLPEIYVQLQREYQISAGDFPEVKAMQEQLENYDFTKFHSLKPKLIEAVDNMLTNKISSLMGLISQEEMNMPTQMVQGGAFDGTTEGPFNQGYGEGAKEGADEEEWVVAKDKPVYDELFYTLSPINGKISGVNAKKEMVTSKLPNSVLGKIWKLADCDCDGMLDEEEFALAKHLIKIKLDGYELPNSLPPHLVPPSHRKSLPKAD
notes: Eps15-homology domain containing protein 4 (EHD4), mouse, amino acids 22-541; N-terminal residues deleted; The fitted model covers residues 22-535; The His6 tag was removed with PreScission protease; also called N-terminal deletion construct of mouse EHD4; EHD4/Pincher; source: E. coli BL21(DE3)-Rosetta2, purified (NiNTA, Superdex 200); not shown: His6, N-terminal, cleaved
Q: Does B1 bind?
A: Result: binds
